# From paper PMC10720265
# Key:
# Assay in all cases: MYC IP followed by mass spectrometry (IP-MS)
# Settings in all cases: three biological replicates; HeLa cell lysates; signals normalized to bait protein levels; read off a plot
# [1] = target: ARS2, endogenous in HeLa cells
# [2] = target: NCBP1, CBC component, endogenous in HeLa cells (UniProt Q09161)
# [3] = target: NCBP2, CBC component, endogenous in HeLa cells (UniProt P52298)
# UniProt P52298, sequence (P52298 whole entry): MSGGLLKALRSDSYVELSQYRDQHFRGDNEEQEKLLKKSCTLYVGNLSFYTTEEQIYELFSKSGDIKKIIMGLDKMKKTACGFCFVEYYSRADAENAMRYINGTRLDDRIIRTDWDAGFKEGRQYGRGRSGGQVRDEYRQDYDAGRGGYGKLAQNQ
# UniProt Q09161, sequence (Q09161 whole entry): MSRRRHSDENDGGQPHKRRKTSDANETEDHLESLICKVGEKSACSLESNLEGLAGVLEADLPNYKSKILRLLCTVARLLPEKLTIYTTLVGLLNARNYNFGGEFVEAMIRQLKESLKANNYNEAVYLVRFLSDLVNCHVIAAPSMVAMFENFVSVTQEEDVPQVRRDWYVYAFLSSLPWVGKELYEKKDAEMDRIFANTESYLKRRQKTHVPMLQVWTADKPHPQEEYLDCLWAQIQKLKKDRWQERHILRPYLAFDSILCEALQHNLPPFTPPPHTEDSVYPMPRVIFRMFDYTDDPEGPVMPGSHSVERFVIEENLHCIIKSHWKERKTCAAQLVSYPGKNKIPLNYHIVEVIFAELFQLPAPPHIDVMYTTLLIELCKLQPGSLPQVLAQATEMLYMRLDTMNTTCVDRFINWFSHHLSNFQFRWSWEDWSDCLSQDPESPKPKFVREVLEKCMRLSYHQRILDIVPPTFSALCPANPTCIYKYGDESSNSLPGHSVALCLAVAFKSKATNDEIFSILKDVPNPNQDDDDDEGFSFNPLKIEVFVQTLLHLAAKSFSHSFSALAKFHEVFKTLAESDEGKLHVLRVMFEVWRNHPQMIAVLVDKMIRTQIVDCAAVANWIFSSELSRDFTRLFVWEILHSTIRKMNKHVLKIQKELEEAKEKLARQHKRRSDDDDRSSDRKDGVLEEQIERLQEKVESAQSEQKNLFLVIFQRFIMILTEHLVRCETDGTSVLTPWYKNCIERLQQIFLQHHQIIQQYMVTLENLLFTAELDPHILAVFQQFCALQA
substance,measurement,setting,value
"Z1^1-209(WT), MYC-tagged N-terminal fragment of human ZFC3H1 (from UniProt O60293) … -> … (E->A; E->A; D->A; E->A; residue numbers not printed)",other: log2 fold change (Z1 1-209(WT)/Z1 1-209(MUT)),[1],6.9 log2
same,other: log2 fold change (Z1 1-209(WT)/Z1 1-209(MUT)),[2],2.1 log2
same,other: log2 fold change (Z1 1-209(WT)/Z1 1-209(MUT)),[3],1.8 log2
